Experimental data from patent publication US20140212427A1 (University of Pennsylvania, published 2014).
Numbering of substitutions follows the chain as printed. Blank lines part the entries; values can stand above or below the binder they belong to.

How the values were obtained:
human properdin = human properdin (human, UniProt P27918 28-469); assay: cell-based or functional assay
[1] = target: T1, human properdin mutant TSR0-4+½ TSR5 (human, UniProt P27918 28-345); assay: sandwich ELISA with CHO cell lysates (FIG. 7)
T1 construct: Expressed in CHO cells, tested as lysate; expression confirmed by Western blot
T1 sequence (P27918 other isoform, or with tags, fused parts or gaps mutant limits assumed): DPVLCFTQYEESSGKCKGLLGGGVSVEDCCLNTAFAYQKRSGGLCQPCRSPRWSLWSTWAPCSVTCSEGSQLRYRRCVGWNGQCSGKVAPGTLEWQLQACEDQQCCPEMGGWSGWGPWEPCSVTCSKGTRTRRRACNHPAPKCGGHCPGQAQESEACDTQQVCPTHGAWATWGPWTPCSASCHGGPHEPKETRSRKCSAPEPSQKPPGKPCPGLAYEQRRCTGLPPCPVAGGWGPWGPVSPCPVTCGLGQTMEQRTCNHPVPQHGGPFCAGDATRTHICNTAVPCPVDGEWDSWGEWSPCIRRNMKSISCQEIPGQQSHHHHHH
Experimental: (§1) (see FIG. 6). ELISA plates were coated with 50 μl of 2 μg/ml of the concerned mAb overnight at 4° C. The plates were washed 3× with PBS-T and then 25 μg (in 50 μl PBS containing 1% BSA) CHO cell lysate proteins were added to the wells and the plates were incubated for 1 hour at room temperature. The plates were washed 3× with PBS-T and then captured protein was detected by biotinylated goat anti-human properdin antibody and HRP-avidin system.
(§2) Three human properdin mutants comprising TSR0-4+¼ TSR5, TSR0-4+½ TSR5 or TSR0-4+¾ TSR5 were generated by conventional PCR. They were cloned into pCAGGS and expressed in CHO cells as described in Example 5. Protein expression was confirmed by Western analysis using goat anti-human properdin antibody. The blot was stripped and reprobed with a mouse anti-His tag antibody (Qiagen) to confirm that the C-terminal His Tag is present (no C-terminal proteolysis).

[2] = target: T2, human properdin deletion mutant dTSR5+6 (human, UniProt P27918 28-313); assay: ELISA with CHO cell lysates of properdin deletion mutants (FIG. 6)
T2 construct: Human properdin with TSR5 and TSR6 deleted; CHO cell lysate; also called TSR0-4; TSR5+6 deletion mutant
T2 sequence (P27918 other isoform, or with tags, fused parts or gaps mutant limits assumed): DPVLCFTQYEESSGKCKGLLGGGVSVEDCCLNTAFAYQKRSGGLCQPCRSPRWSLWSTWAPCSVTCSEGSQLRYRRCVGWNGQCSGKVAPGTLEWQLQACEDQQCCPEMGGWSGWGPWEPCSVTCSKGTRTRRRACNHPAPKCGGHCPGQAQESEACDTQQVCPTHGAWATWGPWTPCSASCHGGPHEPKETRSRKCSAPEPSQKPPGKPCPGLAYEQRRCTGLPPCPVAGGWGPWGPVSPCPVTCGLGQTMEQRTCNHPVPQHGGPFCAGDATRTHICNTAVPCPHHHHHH
Experimental: (§3) However, because dTSR5 has undergone proteolytic degradation leading to possible TSR6 removal (FIG. 5), it is likely that the epitope for mAb 25 is located in TSR6. HuP refers to full length human properdin transfection which is used as a positive control. Con refers to untransfected CHO cell lysate which is used as a negative control for lack of binding. All mutant proteins contained a 6×His tag at the C-terminus.
as §1

[3] = target: T3, human properdin mutant TSR0-5+¾ TSR6 (human, UniProt P27918 28-446); assay: sandwich ELISA with CHO cell lysates (FIG. 8A)
T3 construct: Expressed in CHO cells, tested as lysate; expression confirmed by Western blot
T3 sequence (P27918 other isoform, or with tags, fused parts or gaps mutant limits assumed): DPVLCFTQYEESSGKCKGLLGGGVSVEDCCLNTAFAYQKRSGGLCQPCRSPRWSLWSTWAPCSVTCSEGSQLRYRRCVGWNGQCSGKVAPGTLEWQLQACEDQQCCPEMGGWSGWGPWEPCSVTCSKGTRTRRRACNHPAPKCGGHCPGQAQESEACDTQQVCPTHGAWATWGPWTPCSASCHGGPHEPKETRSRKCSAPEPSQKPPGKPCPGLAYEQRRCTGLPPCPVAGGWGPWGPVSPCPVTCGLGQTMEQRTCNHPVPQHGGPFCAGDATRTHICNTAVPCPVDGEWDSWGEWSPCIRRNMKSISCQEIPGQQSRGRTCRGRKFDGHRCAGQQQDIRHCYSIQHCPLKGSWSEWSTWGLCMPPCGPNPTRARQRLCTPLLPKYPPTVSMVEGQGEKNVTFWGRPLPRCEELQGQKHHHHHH
Experimental: as §1
as §2, with “TSR0-5+¼ TSR6, TSR0-5+½ TSR6” for “TSR0-4+¼ TSR5, TSR0-4+½ TSR5”, “TSR0-5+¾ TSR6” for “TSR0-4+¾ TSR5”, “proteolysis). […] These are cysteine 62 (C62) and cysteine 78 (C78) of TSR6.” for “proteolysis).”

[4] = target: T4, full-length human properdin with the double mutations C62A and C78A (TSR6) (human, UniProt P27918 28-469); assay: ELISA with homogenates of transfected CHO cells (FIG. 8B)
T4 construct: Whether this mutant carries a 6×His tag is not clear; Homogenate of transfected CHO cells; also called C62A and C78A double mutant
T4 sequence (P27918 28-469 C439A/C455A limits assumed): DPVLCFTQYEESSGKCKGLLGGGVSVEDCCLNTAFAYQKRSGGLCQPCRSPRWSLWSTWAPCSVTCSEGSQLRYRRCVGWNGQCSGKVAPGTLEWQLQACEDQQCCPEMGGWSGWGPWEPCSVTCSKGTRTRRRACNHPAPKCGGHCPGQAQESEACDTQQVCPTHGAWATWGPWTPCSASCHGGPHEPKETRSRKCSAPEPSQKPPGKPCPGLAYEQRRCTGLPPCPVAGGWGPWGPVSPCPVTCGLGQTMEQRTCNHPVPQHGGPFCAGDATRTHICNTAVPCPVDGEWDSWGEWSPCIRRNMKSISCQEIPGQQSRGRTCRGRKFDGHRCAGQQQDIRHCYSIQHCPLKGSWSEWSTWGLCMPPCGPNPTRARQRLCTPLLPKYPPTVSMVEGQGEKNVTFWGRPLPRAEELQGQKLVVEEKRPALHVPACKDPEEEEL

[5] = target: T5, human properdin deletion mutant dTSR6 (human, UniProt P27918 28-377); assay: ELISA with CHO cell lysates of properdin deletion mutants (FIG. 6)
T5 construct: CHO cell lysate; also called TSR0-5
T5 sequence (P27918 other isoform, or with tags, fused parts or gaps mutant limits assumed): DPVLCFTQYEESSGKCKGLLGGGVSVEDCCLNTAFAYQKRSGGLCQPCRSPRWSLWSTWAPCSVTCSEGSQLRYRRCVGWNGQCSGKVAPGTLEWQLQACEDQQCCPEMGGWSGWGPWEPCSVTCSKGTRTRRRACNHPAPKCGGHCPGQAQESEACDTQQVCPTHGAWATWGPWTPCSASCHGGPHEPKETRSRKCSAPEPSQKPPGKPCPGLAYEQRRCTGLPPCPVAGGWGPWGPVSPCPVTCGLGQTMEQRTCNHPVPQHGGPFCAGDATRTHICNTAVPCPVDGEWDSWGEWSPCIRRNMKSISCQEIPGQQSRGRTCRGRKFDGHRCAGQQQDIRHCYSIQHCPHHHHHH
Experimental: as §3, §1

Chain of human properdin (P27918 28-469): as the sequence (P27918 28-469 C439A/C455A limits assumed) above, with A412C, A428C counted along it

concentration sufficient to inhibit LPS-induced human AP complement activation in 50% NHS (C3 deposition) (human properdin): 10 µg/mL
B1: humanized 19.1 mAb with heavy chain variable region humanized 19.1 VH-3-66-04 (antibody, human IgG4 S228P, kappa, V domains shown)
VH: EVQLVESGGGLVQPGGSLRLSCAASGFSLTTYGVHWVRQAPGKGLEWVSVIWSGGDTDYNASFISRFTISRDNSKNTLYLQMNSLRAEDTAVYYCARNKDYYTNYDFTMDYWGQGTTVTVSS
VL: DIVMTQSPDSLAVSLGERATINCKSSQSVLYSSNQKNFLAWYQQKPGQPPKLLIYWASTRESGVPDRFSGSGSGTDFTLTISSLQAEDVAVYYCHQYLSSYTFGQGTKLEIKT

LPS-induced AP complement activation in 50% normal human serum (C3 deposition, OD450) (human properdin): 5 µg/mL
acidified autologous serum lysis of PNH patient RBCs (Ham's test) (human properdin): ≥ 8 µg/ml
concentration sufficient to inhibit LPS-induced human AP complement activation in 50% NHS (C3 deposition) (human properdin): 5 µg/mL
lysis of human RBCs by 50% human serum with fH 19-20 and anti-DAF mAb (human properdin): 5 µg/mL
binding result [1]: no binding
binding result [2]: no binding
B2: mAb 19.1 (antibody, V domains shown)
VH: QVQLKQSGPGLVQPSQSLSISCTVSGFSLTTYGVHWVRQSPGKGLEWLGVIWSGGDTDYNASFISRLRINKDTSKSQVFFKMNSLQADDTAYYCARNKDYYTNYDFTMDYWGQGTSVTVSS
VL: NIMMTQSPSSLAVSAGEKVTMSCKSSQSVLYSSNQKNFLAWYQQKPGQSPKLLIYWASTRESGVPDRFTGSGSGTDFILTINSVQVEDQAVYYCHQYLSSYTFGGGTKLEIK
notes: Mouse hybridoma monoclonal antibody from properdin knockout mice immunised with human properdin; kappa light chain

LPS-induced AP complement activation in 50% normal human serum (C3 deposition, OD450) (human properdin): 5 µg/mL
lysis of human RBCs by 50% human serum with fH 19-20 and anti-DAF mAb (human properdin): 5 µg/mL
B3: mAb 22.1 (antibody, V domains shown)
VH: QVQLKQSGPGLVQPSQSLSITCTVSGFSLTSYGVHWVRQSPGKGLEWLGVIWSGGSTDYNAAFISRLSISKDTSKSQVFFKMNSLQPDDTAIYYCARNKDFYSNYDYTMDYWGQGTSVTVSS
VL: B2 VL with S10F, M21L, I78T, N82S, V86A, Q89L

concentration sufficient to inhibit LPS-induced human AP complement activation in 50% NHS (C3 deposition) (human properdin): 10 µg/mL
B4: chimeric 19.1 mAb (antibody, human IgG4 S228P, kappa, V domains shown)
VH: B2 VH
VL: NIMMTQSPSSLAVSAGEKVTMSCKSSQSVLYSSNQKNFLAWYQQKPGQSPKLLIYWASTRESGVPDRFTGSGSGTDFILTINSVQVEDQAVYYCHQYLSSYTFGGGTKLEIKT

acidified autologous serum lysis of PNH patient RBCs (Ham's test) (human properdin): 20 µg/ml
concentration sufficient to inhibit LPS-induced human AP complement activation in 50% NHS (C3 deposition) (human properdin): 10 µg/mL
B5: humanized 19.1 mAb with heavy chain variable region humanized 19.1 VH-4-59-01 (antibody, human IgG4 S228P, kappa, V domains shown)
VH: QVQLQESGPGLVKPSETLSLTCTVSGFSLTTYGVHWIRQPPGKGLEWIGVIWSGGDTDYNASFISRVTISVDTSKNQFSLKLSSVTAADTAVYYCARNKDYYTNYDFTMDYWGQGTTVTVSS
VL: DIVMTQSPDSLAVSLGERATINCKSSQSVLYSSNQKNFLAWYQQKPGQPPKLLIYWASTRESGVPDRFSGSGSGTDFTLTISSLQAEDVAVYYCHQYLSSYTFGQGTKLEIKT

LPS-induced AP complement activation in 50% normal human serum (C3 deposition, OD450) (human properdin): 5 µg/mL
acidified autologous serum lysis of PNH patient RBCs (Ham's test) (human properdin): ≥ 8 µg/ml
lysis of human RBCs by 50% human serum with fH 19-20 and anti-DAF mAb (human properdin): 5 µg/mL
binding result [3]: no binding
binding result [4]: no binding
binding result [2]: no binding
binding result [5]: no binding
B6: mAb 25 (antibody, V domains shown)
VH: QVQLLQSGAEVMKPGASVTLSCKAIGYTFIDYWIEWIKQRPGHGLEWIGEIFPGSGTINHNEKFKDKASFSAHSSSNTAYMQLSRLTSEDSAIYYCAREGLDYWGQGTTLTVSS
VL: QIVLTQSPAIMSASPGERVTMTCSASSSVSYIYWYQQKSGTSPKRWIFDTSTLASGVPTRFSGSGSGTSYSLTISSMETEDAATYYCQQWSRNPFTFGSGTKLEIK
notes: Mouse hybridoma monoclonal antibody; also called anti-properdin mAb 25
